Test results published in patent publication US20090191195A1 (MacroGenics, published 2009).

Target: T1, human FcγRIIB (human, UniProt P31994 43-310)
T1 construct: whole, on cells; Native receptor on human cells or in frozen tissue sections; also called CD32B
T1 sequence (looked up): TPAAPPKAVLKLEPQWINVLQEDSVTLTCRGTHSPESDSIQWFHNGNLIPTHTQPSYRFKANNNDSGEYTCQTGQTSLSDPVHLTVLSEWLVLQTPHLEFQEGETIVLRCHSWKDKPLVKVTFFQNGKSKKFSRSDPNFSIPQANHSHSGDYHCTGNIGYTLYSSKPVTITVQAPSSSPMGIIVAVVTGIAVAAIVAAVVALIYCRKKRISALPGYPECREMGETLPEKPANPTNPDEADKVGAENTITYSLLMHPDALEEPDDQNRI
Test: immunohistochemistry, frozen lymph node, patient MG04-CHTN-19; grade = share of positive cells
Procedure: The remaining portions of these samples were placed in cryomolds and embedded in OCT cryocompound (Tissue-Tek). Once the blocks were ready, each was sectioned under a Cryostat (Leica Microsystems) at 6 microns. The slides were placed in 4° C. acetone and fixed for 10 minutes. Hours after fixation the slides were air dried and washed with phosphate buffer saline (PBS). Then endogenous peroxide activity was blocked by a 30 minute incubation in a 0.3% hydrogen peroxide solution. The slides were washed in PBS and incubated for 30 minutes with 10% normal goat serum in 2% normal human serum. After this step, the slides were divided in two groups. Two monoclonal antibodies were utilize and incubated on the same tissue in parallel, an anti-CD20 (1F5—a hybridoma, ATCC No. HB-9645, purified at Macrogenics) and the murine monoclonal anti-CD32B antibody, 2B6. Each group was incubated with one monoclonal antibody and their respective Isotype control, IgG1 (BD Biosciences, San Jose, Calif.) for the 2B6/anti-CD32B group and IgG2a (BD Biosciences) for the 1F5/anti-CD20 group. Mouse IgG1 and murine IgG2a were used as Isotype controls for anti-CD32B and anti-CD20, respectively. After one hour of incubation at room temperature, the slides were washed in PBS and incubated with a secondary antibody Goat anti Mouse labeled peroxidase (Jackson ImmunoResearch Laboratories, West Grove, Pa.). […]

binding result: binds
B1: monoclonal antibody produced by clone 2B6 (ATCC accession number PTA-4591) (antibody, V domains shown)
VH: QVQLQQPVTELVRPGASVMLSCKASDYPFTNYWIHWVKQRPGQGLEWIGVIDPSDTYPNYNKKFKGKATLTVVVSSSTAYMQLSSLTSDDSAVYYCARNGDSDYYSGMDYWGQGTSVTVSS
VL: DILLTQSPAILSVSPGERVSFSCRTSQSIGTNIHWYQQRTNGFPRLLIKNVSESISGIPSRFSGSGSGTDFILSINSVESEDIADYYCQQSNTWPFTFGGGTKLEIK
notes: Mouse hybridoma antibody; mouse IgG1 was used as its isotype control; also called murine monoclonal anti-CD32B antibody, 2B6; anti-CD32B
